First the molecules themselves.
B1: Tumor necrosis factor receptor superfamily member 14 (Homo sapiens), Q92956 (parent)
chain: MEPPGDWGPPPWRSTPKTDVLRLVLYLTFLGAPCYAPALPSCKEDEYPVGSECCPKCSPGYRVKEACGELTGTVCEPCPPGTYIAHLNGLSKCLQCQMCDPAMGLRASRNCSRTENAVCGCSPGHFCIVQDGDHCAACRAYATSSPGQRVQKGGTESQDTLCQNCPPGTFSPNGTLEECQHQTKCSWLVTKAGAGTSSSHWVWWFLSGSLVIVIVCSTVGLIICVKRRKPRGDVVKVIVSVQRKRQEAEGEATVIEALQAPPDVTTVAVEETIPSFTGRSPNH
B2: Tumor necrosis factor receptor superfamily member 14 (Homo sapiens), Q92956 (parent)
chain: B1 chain
partner: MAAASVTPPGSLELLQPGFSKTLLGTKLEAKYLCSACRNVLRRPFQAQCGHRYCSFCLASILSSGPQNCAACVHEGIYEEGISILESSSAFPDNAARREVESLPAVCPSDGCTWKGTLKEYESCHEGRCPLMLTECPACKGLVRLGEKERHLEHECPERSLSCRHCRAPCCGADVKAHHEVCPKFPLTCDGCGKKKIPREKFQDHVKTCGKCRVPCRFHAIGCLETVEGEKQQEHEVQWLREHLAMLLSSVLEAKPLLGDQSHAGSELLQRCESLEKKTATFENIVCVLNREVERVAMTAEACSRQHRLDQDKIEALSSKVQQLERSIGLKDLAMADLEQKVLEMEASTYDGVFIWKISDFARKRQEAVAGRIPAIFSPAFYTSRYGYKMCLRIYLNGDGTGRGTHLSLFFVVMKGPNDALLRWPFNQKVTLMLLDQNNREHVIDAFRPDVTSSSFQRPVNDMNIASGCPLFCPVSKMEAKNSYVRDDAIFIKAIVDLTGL

The record followed here is IntAct's records for PubMed 9153189.

Variants of B1 are the subject of the first experiment. The settings on record: with traf5_human TRAF5, O00463.
traf5_human TRAF5, O00463, sequence (O00463 whole entry): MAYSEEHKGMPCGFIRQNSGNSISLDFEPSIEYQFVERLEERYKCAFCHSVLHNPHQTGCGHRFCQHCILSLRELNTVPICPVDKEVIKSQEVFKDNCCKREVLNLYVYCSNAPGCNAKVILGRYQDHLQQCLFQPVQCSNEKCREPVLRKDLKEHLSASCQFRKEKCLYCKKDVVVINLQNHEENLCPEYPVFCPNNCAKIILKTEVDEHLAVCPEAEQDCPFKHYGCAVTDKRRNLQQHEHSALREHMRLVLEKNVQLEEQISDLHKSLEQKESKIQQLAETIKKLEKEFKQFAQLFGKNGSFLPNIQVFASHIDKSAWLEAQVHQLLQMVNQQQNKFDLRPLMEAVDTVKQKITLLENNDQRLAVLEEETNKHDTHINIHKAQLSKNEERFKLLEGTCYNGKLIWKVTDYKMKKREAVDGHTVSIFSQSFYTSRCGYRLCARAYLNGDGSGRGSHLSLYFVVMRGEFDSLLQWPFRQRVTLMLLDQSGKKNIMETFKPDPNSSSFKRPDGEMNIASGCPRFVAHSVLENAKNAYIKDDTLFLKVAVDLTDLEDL
Take E271A: the “effect of a mutation on the interaction” value is given as “decreasing interaction”.

In a further experiment the parent is B2. The note with it: with traf2_human TRAF2, Q12933.
As for E271A, the “effect of a mutation on the interaction” value was “decreasing interaction”.
